We go through eight molecules from US20150166666A1 (Chugai, published 2015).

One may read the Kd as the free concentration of one partner at which half of the binding sites on the other are occupied at equilibrium, for simple one-to-one binding.

Read-outs that look alike come from different tables or passages of the source.

Assay [1] addresses T1, Soluble human FcRn (complex of FcRn and beta2-microglobulin) (human, UniProt P55899 24-290; P16213 21-119).
T1 construct: Both constructs are stated with their signal regions (Met1-Leu290; Met1-Met119)
Put plainly: Biacore, binding to human FcRn. (In general: SPR reads the build-up and loss of mass on a sensor chip optically.)

Assay [2] concerns the target T2, Soluble recombinant human IL-6 receptor (SR344) (human, UniProt P08887 20-344, limits assumed, biotinylated (sites not given) only in the membrane-type dissociation assay).
T2 sequence (looked up): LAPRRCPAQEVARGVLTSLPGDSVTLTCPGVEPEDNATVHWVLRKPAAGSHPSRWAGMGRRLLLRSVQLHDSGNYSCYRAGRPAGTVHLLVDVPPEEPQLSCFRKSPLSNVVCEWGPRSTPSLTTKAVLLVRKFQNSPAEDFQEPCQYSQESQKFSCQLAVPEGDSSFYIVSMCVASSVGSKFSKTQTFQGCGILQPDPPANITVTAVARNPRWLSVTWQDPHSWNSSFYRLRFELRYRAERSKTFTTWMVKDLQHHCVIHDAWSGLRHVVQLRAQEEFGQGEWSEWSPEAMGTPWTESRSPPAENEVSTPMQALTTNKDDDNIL
Put plainly: cell-based or functional assay.

Assay [3] concerns the target T1, Soluble human FcRn (complex of FcRn and …). In words: Biacore, binding to human FcRn. The source holds these as a separate data set.
In assay [4] the target is T2, Soluble recombinant human IL-6 receptor …. Put plainly: SPR, Biacore T100, biotinylated SR344 on streptavidin chip as membrane-type IL-6 receptor, ratio of dissociation rates. On the procedure: (§1) The antigen-antibody reaction with membrane-type IL-6 receptor at pH 5.8 and pH 7.4 was observed using Biacore T100 (GE Healthcare). The binding to membrane-type IL-6 receptor was assessed by evaluating the binding to soluble human IL-6 receptor immobilized onto the sensor chip. SR344 was biotinylated by a method known to those skilled in the art. Based on the affinity between biotin and streptavidin, biotinylated soluble human IL-6 receptor was immobilized onto the sensor chip via streptavidin. All measurements were conducted at 37° C. The mobile phase buffer was 10 mM MES (pH 5.8), 150 mM NaCl, and 0.05% Tween 20. […] The dissociation rate constant (kd (1/s)) at pH 5.8 was calculated using Biacore T100 Evaluation Software (GE Healthcare) by fitting only the dissociation phase at pH 5.8. The sample concentration was 0.25 μg/ml. Binding was carried out in 10 mM MES (pH 7.4), 150 mM NaCl, and 0.05% Tween 20, and dissociation was carried out in 10 mM MES (pH 5.8), 150 mM NaCl, and 0.05% Tween 20. Likewise, the dissociation rate constant (kd (1/s)) at pH 7.4 was calculated using Biacore T100 Evaluation Software (GE Healthcare) by fitting only the dissociation phase at pH 7.4. The sample concentration was 0.5 μg/ml. Binding was carried out in 10 mM MES (pH 7.4), 150 mM NaCl, and 0.05% Tween 20, and dissociation was carried out in 10 mM MES (pH 7.4), 150 mM NaCl, and 0.05% Tween 20.

Assay [5] has the same target. The assay is described as above. On the procedure:
The rates of dissociation of TOCILIZUMAB, Fv3-M73, and Fv4-M73 from membrane-type IL-6 receptor at pH 7.4 and 5.8 were determined.
as §1
The source holds these as a separate data set.

Assay [6] shares this target. Put plainly: cell-based or functional assay. This is another data set of the same source.
Assay [7] shares this target. Put plainly: SPR, Biacore T100, soluble IL-6 receptor as analyte. On the procedure: (§2) Antigen-antibody reaction kinetics was analyzed using Biacore T100 (GE Healthcare). The soluble human IL-6 receptor-antibody interaction was measured by immobilizing appropriate amounts of protein A or protein A/G or anti-IgG (γ-chain specific) F(ab′)2 onto a sensor chip by amine coupling method, binding antibodies of interest onto the chip at pH7.4, and then running soluble IL-6 receptor adjusted to various concentrations at pH7.4 over the chip as an analyte. All measurements were carried out at 37° C. The kinetic parameters, association rate constant kₐ (1/Ms) and dissociation rate constant kd (1/s) were calculated from the sensorgrams obtained by measurement. Then, KD (M) was determined based on the rate constants. The respective parameters were determined using Biacore T100 Evaluation Software (GE Healthcare).

The target is the same in assay [8]. Put plainly: SPR, Biacore T100, antibody captured on chip, soluble IL-6 receptor as analyte; ratio against TOCILIZUMAB
On the procedure:
as §2

T1 sequence (P55899 24-290 limits assumed, chain 1 of 2): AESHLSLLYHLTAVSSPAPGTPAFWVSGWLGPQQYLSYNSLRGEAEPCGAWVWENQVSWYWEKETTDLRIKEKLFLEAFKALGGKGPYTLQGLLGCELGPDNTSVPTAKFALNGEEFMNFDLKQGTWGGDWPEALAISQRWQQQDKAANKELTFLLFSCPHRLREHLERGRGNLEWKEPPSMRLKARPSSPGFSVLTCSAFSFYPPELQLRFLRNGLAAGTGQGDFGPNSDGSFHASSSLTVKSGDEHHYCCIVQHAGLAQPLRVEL
T1 sequence (P16213 21-119 limits assumed, chain 2 of 2): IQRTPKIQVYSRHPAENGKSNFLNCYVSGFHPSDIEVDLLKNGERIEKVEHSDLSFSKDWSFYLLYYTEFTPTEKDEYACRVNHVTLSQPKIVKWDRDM

B1: TOCILIZUMAB-M58 (H chain WT-M58; L chain WT-kappa) (antibody, IgG2)
heavy: QVQLQESGPGLVRPSQTLSLTCTVSGYSITSDHAWSWVRQPPGRGLEWIGYISYSGITTYNPSLKSRVTMLRDTSKNQFSLRLSSVTAADTAVYYCARSLARTTAMDYWGQGSLVTVSSASTKGPSVFPLAPSSKSTSGGTAALGCLVKDYFPEPVTVSWNSGALTSGVHTFPAVLQSSGLYSLSSVVTVPSSNFGTQTYTCNVDHKPSNTKVDKTVERKSCVECPPCPAPPVAGPSVFLFPPKPKDTLMISRTPEVTCVVVDVSQEDPEVQFNWYVDGVEVHNAKTKPREEQFNSTFRVVSVLTVVHQDWLNGKEYKCKVSNKGLPAPIEKTISKTKGQPREPQVYTLPPSQEEMTKNQVSLTCLVKGFYPSDIAVEWESNGQPENNYKTTPPMLDSDGSFFLYSKLTVDKSRWQEGNVFSCSVMHEALHNHYTQKSLSLSP
light: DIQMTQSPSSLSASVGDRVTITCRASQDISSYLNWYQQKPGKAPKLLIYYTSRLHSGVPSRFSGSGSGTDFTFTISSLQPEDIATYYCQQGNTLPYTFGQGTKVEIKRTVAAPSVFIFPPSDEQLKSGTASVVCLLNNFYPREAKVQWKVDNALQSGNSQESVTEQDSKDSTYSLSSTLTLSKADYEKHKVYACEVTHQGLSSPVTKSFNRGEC
notes: M58 constant region: altered IgG2 (SKSC with further changes, Gly446 and Lys447 deleted)
As for B1, the “fold superior binding than TOCILIZUMAB-IgG1” value in assay [1] was approximately 1.4 times.

B2: TOCILIZUMAB-M73 (H chain WT-M73; L chain WT-kappa) (antibody)
heavy: QVQLQESGPGLVRPSQTLSLTCTVSGYSITSDHAWSWVRQPPGRGLEWIGYISYSGITTYNPSLKSRVTMLRDTSKNQFSLRLSSVTAADTAVYYCARSLARTTAMDYWGQGSLVTVSSASTKGPSVFPLAPSSKSTSGGTAALGCLVKDYFPEPVTVSWNSGALTSGVHTFPAVLQSSGLYSLSSVVTVPSSNFGTQTYTCNVDHKPSNTKVDKTVERKSCVECPPCPAPPVAGPSVFLFPPKPKDTLMISRTPEVTCVVVDVSQEDPEVQFNWYVDGVEVHNAKTKPREEQFNSTFRVVSVLTVVHQDWLNGKEYKCKVSNKGLPAPIEKTISKTKGQPREPQVYTLPPSQEEMTKNQVSLTCLVKGFYPSDIAVEWESNGQPENNYKTTPPMLDSDGSFFLYSKLTVDKSRWQEGNVFSCSVMHEALHAHYTQKSLSLSP
light: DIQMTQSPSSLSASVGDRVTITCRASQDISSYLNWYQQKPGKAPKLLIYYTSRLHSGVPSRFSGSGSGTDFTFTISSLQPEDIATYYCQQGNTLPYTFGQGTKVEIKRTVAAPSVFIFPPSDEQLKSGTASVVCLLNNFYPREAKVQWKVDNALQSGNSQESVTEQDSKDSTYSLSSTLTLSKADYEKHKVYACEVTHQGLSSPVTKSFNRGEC
notes: M73 constant region: M58 with asparagine 434 (EU) changed to alanine
Take B2: the “fold superior binding than TOCILIZUMAB-IgG1” value in assay [1] was approximately 3.8 times.

B3: TOCILIZUMAB (H chain WT-IgG1; L chain WT-kappa) (antibody)
heavy: not shown
light: not shown
notes: IgG1/kappa; also called TOCILIZUMAB-IgG1; humanized anti-IL-6 receptor IgG1 antibody
On to B3, for which, in assay [2], the “IC50 (read off the curve)” value is approximately 0.5 µg/mL. The same molecule returned a Kd in assay [3] of 1620 nM. The “kd (pH 5.8)/kd (pH 7.4), pH …” value in assay [4] and in assay [5] was 1 throughout.

B4: RDC-23 (H chain RDC23H-IgG1; L chain RDC-23L-kappa) (antibody, V domains shown)
VH: QVQLQESGPGLVRPSQTLSLTCTVSGYSITSDHAWSWVRQPPGRGLEWIGYISYSGITTYNPSLKSRVTMLRDTSKNQFSLRLSSVTAADTAVYYCARVLARITAMDYWGQGSLVTVSS
VL: DIQMTQSPSSLSASVGDRVTITCRASQDISSYLNWYQQKPGKAPKLLIYYTSRLHSGVPSRFSGSGSGTDFTFTISSLQPEDIATYYCGQGNRLPYTFGQGTKVEIKR
As to B4, the “IC50 (read off the curve)” value in assay [6] is approximately 0.02 µg/mL. The “fold higher affinity than TOCILIZUMAB” value in assay [7] was approximately 60 times. The “fold affinity relative to TOCILIZUMAB” value in assay [8] was approximately 60 times.

B5: H53/L28 (H chain H53-IgG1; L chain L28-kappa) (antibody, V domains shown)
VH: QVQLQESGPGLVKPSETLSLTCAVSGYSISDDHAWSWVRQPPGEGLEWIGYISYSGITNYNPSLKGRVTISRDTSKNQFSLKLSSVTAADTAAYYCARSLARTTAMDYWGEGTLVTVSS
VL: DIQMTQSPSSLSASVGDSVTITCQASQDISSYLNWYQQKPGKAPELLIYYGSELHSGVPSRFSGSGSGTDFTFTISSLEAEDAATYYCQQGNSLPYTFGQGTKVEIER
notes: IgG1/kappa; also called TOCILIZUMAB with reduced isoelectric point
On to B5, for which, in assay [2], the “IC50 (read off the curve)” value is approximately 0.1 µg/mL. In assay [7], the “fold higher affinity than TOCILIZUMAB” value was approximately 6 times.

B6: Fv3-M73 (H chain VH4-M73; L chain VL1-kappa) (antibody, V domains shown)
VH: QVQLQESGPGLVKPSETLSLTCAVSGHSISHDHAWSWVRQPPGEGLEWIGFISYSGITNYNPTLQGRVTISRDNSKNTLYLQMNSLRAEDTAVYYCARSLARTTAMDYWGEGTLVTVSS
VL: DIQMTQSPSSLSASVGDSVTITCQASRDISSHLNWYQQKPGKAPELLIYYGSHLLSGVPSRFSGSGSGTDFTFTISSLEAEDAATYYCGQGNRLPYTFGQGTKVEIER
notes: Fully humanized
In the case of B6, the “kd (pH 5.8)/kd (pH 7.4), pH …” value in assay [5] amounted to 10.9.

B7: H3pI/L73 (H chain H3pI-IgG1; L chain L73-kappa) (antibody, V domains shown)
VH: QVQLQESGPGLVKPSETLSLTCAVSGHSISHDHAHSWVRQPPGEGLEWIGYISYSGITNYNPSLKGRVTISRDTSKNQFSLKLSSVTAADTAAYYCARSLARTTAMDYWGEGTLVTVSS
VL: DIQMTQSPSSLSASVGDSVTITCQASQHISSHLNWYQQKPGKAPELLIYYGSHLHSGVPSRFSGSGSGTDFTFTISSLEAEDAATYYCGQGNRLPYTFGQGTKVEIER
notes: IgG1/kappa
For B7, the “kd (pH 5.8)/kd (pH 7.4), pH …” value in assay [4] came to 2.59.

B8: Fv4-M73 (H chain VH3-M73; L chain VL3-kappa) (antibody, V domains shown)
VH: QVQLQESGPGLVKPSETLSLTCAVSGHSISHDHAWSWVRQPPGEGLEWIGFISYSGITNYNPSLQGRVTISRDNSKNTLYLQMNSLRAEDTAVYYCARSLARTTAMDYWGEGTLVTVSS
VL: DIQMTQSPSSLSASVGDSVTITCQASTDISSHLNWYQQKPGKAPELLIYYGSHLLSGVPSRFSGSGSGTDFTFTISSLEAEDAATYYCGQGNRLPYTFGQGTKVEIER
notes: Fully humanized
With B8, the “kd (pH 5.8)/kd (pH 7.4), pH …” value in assay [5] was found to be 10.1.
